The values below come from publication PMC11188170, “A comprehensive analysis of the WRKY family in soybean and functional analysis of GmWRKY164-GmGSL7c in resistance to soybean mosaic virus”.

This data set has as its target GmWRKY164 (Glycine max, UniProt K7MND9 1-149). Put plainly: EMSA; 6 ug protein; 200-fold unlabelled probe used as competitor; LightShift Chemiluminescent EMSA kit binding reaction, 20 min, 6% native PAGE; buffer, salt, pH and temperature not stated. The conditions noted are these: protein: recombinant; tags: His; label: 5' biotin; blunt. (In general: In EMSA bound probe runs differently from free probe, usually more slowly.)

Chain of GmWRKY164 (K7MND9 entry or part of it): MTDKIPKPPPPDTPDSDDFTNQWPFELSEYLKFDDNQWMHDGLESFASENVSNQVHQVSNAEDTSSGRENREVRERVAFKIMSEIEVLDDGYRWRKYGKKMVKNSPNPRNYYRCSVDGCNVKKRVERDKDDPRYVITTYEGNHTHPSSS

B1: GmGSL7c promoter W-box probe (dsDNA)
DNA 1: TAGCCCAACTCATCAGAAGAAGGTCAATGTAATAGTA
DNA 2: TACTATTACATTGACCTTCTTCTGATGAGTTGGGCTA
Consider B1, for which the binding result is recorded as “binds”.
